Patent publication US20190194350A1 (UNIVERSITAT STUTTGART, published 2019)
Where “and” joins values, the source holds several entries; their conditions need not be identical. Equal entries are not always repeated.

B1: scFv 3-43 (scFv)
scFv: QVQLQQSGPGLVKPSQTLSLTCAISGDSVSSNRAAWNWIRQSPSRGLEWLGRTYYRSKWYNDYAQSLKSRITINPDTPKNQFSLQLNSVTPEDTAVYYCARDGQLGLDALDIWGQGTMVTVSSGGGGSGGGGSGGGGSQAGLTQPPAVSVAPGQTASITCGRDNIGSRSVHWYQQKPGQAPVLVVYDDSDRPAGIPERFSGSNYENTATLTISRVEAGDEADYYCQVWGITSDHVVFGGGTKLTVLG
B2: IgG 2-35 (antibody, V domains shown)
VH: QMQLVQSGAEVKKPGESLKISCKGSGYSFTSYWIGWVRQMPGKGLEWMGIIYPGDSDTRYSPSFQGQVTISADKSISTAYLQWSSLKASDTAMYYCARLGRSGSYYNYGMDVWGQGTTVTVSS
VL: QAVVTQEPSFSVSPGGTVTLTCGLSSGSVSSSYYPSWYQQTSGQPPRTLIYSTDTRSSGVPDRFSGSILGDKAALTITGAQADDESDYYCMLYMGSGISVFGGGTKLAVL
notes: Anti-HER2 antibody found by phage display
B3: Db3-43xhu225-Ig (bispecific antibody, human IgG1, kappa)
light: QVQLQQSGPGLVKPSQTLSLTCAISGDSVSSNRAAWNWIRQSPSRGLEWLGRTYYRSKWYNDYAQSLKSRITINPDTPKNQFSLQLNSVTPEDTAVYYCARDGQLGLDALDIWGQGTMVTVSSGGGGSDIQLTQSPSFLSASVGDRVTITCRASQSIGTNIHWYQQKPGKAPKLLIKYASESISGVPSRFSGSGSGTEFTLTISSLQPEDFATYYCQQNNNWPTTFGAGTKLEIKRTVAAPSVFIFPPSDEQLKSGTASVVCLLNNFYPREAKVQWKVDNALQSGNSQESVTEQDSKDSTYSLSSTLTLSKADYEKHKVYACEVTHQGLSSPVTKSFNRGEC
heavy: EVQLVESGGGLVQPGGSLRLSCAASGFSLTNYGVHWVRQAPGKGLEWLGVIWSGGNTDYNTPFTSRFTISRDNSKNTLYLQMNSLRAEDTAVYYCARALTYYDYEFAYWGQGTTVTVSSGGGGSQAGLTQPPAVSVAPGQTASITCGRDNIGSRSVHWYQQKPGQAPVLVVYDDSDRPAGIPERFSGSNYENTATLTISRVEAGDEADYYCQVWGITSDHVVFGGGTKLTVLASTKGPSVFPLAPSSKSTSGGTAALGCLVKDYFPEPVTVSWNSGALTSGVHTFPAVLQSSGLYSLSSVVTVPSSSLGTQTYICNVNHKPSNTKVDKKVEPKSCDKTHTCPPCPAPPVAGPSVFLFPPKPKDTLMISRTPEVTCVVVDVSHEDPEVKFNWYVDGVEVHNAKTKPREEQYNSTYRVVSVLTVLHQDWLNGKEYKCKVSNKGLPSSIEKTISKAKGQPREPQVYTLPPSRDELTKNQVSLTCLVKGFYPSDIAVEWESNGQPENNYKTTPPVLDSDGSFFLYSKLTVDKSRWQQGNVFSCSVMHEALHNHYTQKSLSLSPGK
notes: Light chain VH3-43xVLhu225-CL, heavy chain VHhu225xVLhu3-43-CH1-CH2-CH3; two sites for EGFR and two for HER3; also called Db-Ig; bispecific and tetravalent diabody-Ig fusion protein
B4: scDb 3-43xCD3 (bispecific antibody)
chain: QLQQSGPGLVKPSQTLSLTCAISGDSVSSNRAAWNWIRQSPSRGLEWLGRTYYRSKWYNDYAQSLKSRITINPDTPKNQFSLQLNSVTPEDTAVYYCARDGQLGLDALDIWGQGTMVTVSSGGGGSDIQMTQSPSSLSASVGDRVTITCRASQDIRNYLNWYQQKPGKAPKLLIYYTSRLHSGVPSRFSGSGSGTDFTFTISSLQPEDIATYYCQQGNTLPWTFGQGTKLEIKRGGGGSGGGGSGGGGSQVQLVQSGAEVKKPGSSVKVSCKASGGTFSGYTMNWVRQAPGQGLEWMGLINPYKGVSTYNGKFKDRVTITADKSTSTAYMELSSLRSEDTAVYYCARSGYYGDSDWYFDVWGQGTLVTVSSGGGGSQAGLTQPPAVSVAPGQTASITCGRDNIGSRSVHWYQQKPGQAPVLVVYDDSDRPAGIPERFSGSNYENTATLTISRVEAGDEADYYCQVWGITSDHVVFGGGTKLTVLAAAHHHHHH
notes: also called scDb3-43xhuU3
B5: scDb3-43xCD3-scFv3-43 (bispecific antibody)
chain: QLQQSGPGLVKPSQTLSLTCAISGDSVSSNRAAWNWIRQSPSRGLEWLGRTYYRSKWYNDYAQSLKSRITINPDTPKNQFSLQLNSVTPEDTAVYYCARDGQLGLDALDIWGQGTMVTVSSGGGGSDIQMTQSPSSLSASVGDRVTITCRASQDIRNYLNWYQQKPGKAPKLLIYYTSRLHSGVPSRFSGSGSGTDFTFTISSLQPEDIATYYCQQGNTLPWTFGQGTKLEIKRGGGGSGGGGSGGGGSQVQLVQSGAEVKKPGSSVKVSCKASGGTFSGYTMNWVRQAPGQGLEWMGLINPYKGVSTYNGKFKDRVTITADKSTSTAYMELSSLRSEDTAVYYCARSGYYGDSDWYFDVWGQGTLVTVSSGGGGSQAGLTQPPAVSVAPGQTASITCGRDNIGSRSVHWYQQKPGQAPVLVVYDDSDRPAGIPERFSGSNYENTATLTISRVEAGDEADYYCQVWGITSDHVVFGGGTKLTVLAAAGGSGGGGSGGGTQVQLQQSGPGLVKPSQTLSLTCAISGDSVSSNRAAWNWIRQSPSRGLEWLGRTYYRSKWYNDYAQSLKSRITINPDTPKNQFSLQLNSVTPEDTAVYYCARDGQLGLDALDIWGQGTMVTVSSGGGGSGGGGSGGGGSQAGLTQPPAVSVAPGQTASITCGRDNIGSRSVHWYQQKPGQAPVLVVYDDSDRPAGIPERFSGSNYENTATLTISRVEAGDEADYYCQVWGITSDHVVFGGGTKLTVLGSLHHHHHH
notes: Trivalent: two sites for HER3, one for CD3; also called scDb-scFv; scDb3-43xhuU3-scFv3-43

What was measured:
[1] = target: T1, mouse HER3-Fc fusion protein (extracellular region of mouse HER3 fused to a human Fc region) (mouse, UniProt Q61526 20-641); assay: ELISA, immobilized mouse HER3 extracellular region fused to human Fc, scFv detected with anti-His-tag antibody
T1 construct: extracellular domain; not shown: human Fc region

HER2-ECD protein = target: T2, HER2-ECD protein (UniProt P04626 23-652, limits assumed); assay: ELISA, immobilized HER2-ECD
T2 construct: extracellular domain

[2] = target: T3, HER3-His (HER3 aa 27-599 of the extracellular domain fused C-terminally with a hexahistidyl-tag) (human, UniProt P21860 27-599); assay: ELISA, coated His-tagged HER3 ECD (aa 27-599)
T3 construct: also called soluble His-tagged HER3; His-tagged extracellular domain of HER3; not shown: C-terminal hexahistidyl-tag

[3] = target: T4, HER3 on HER3-expressing tumor cells (human, UniProt P21860 20-1342); assay: flow cytometry, HER3-positive MCF-7 cells; MCF-7 cells
T4 construct: Endogenous HER3 of human tumor cell lines (MCF-7, FaDu, BT474, A431, NCI-N87, A549, SKBR-3, Colo205, HCT-116, A375 and melanoma lines); also called cellular receptor HER3; cell surface expressed HER3

[4] = target: T3, HER3-His (HER3 aa 27-599 of the …); assay: sandwich ELISA: coated EGFR-Fc, serial dilution of Db3-43xhu225-Ig, then 300 nM HER3-His detected by anti-His-HRP
EGFR on tumor cells [5] = target: T5, EGFR on tumor cells (human, UniProt P00533 25-1210); assay: flow cytometry, FaDu cells (very high EGFR, low HER3; the filing says binding is most likely through the hu225 moieties); FaDu cells
T5 construct: whole, on cells; also called EGFR on FaDu and SKBR-3 cells

EGFR on tumor cells [6] = target: T5, EGFR on tumor cells; assay: flow cytometry, SKBR-3 cells (carry EGFR and HER3; bispecific, number not split between the two targets); SKBR-3 cells (EGFR and HER3 in similar ranges)
[7] = target: T4, HER3 on HER3-expressing tumor cells; assay: as above
[8] = target: T4, HER3 on HER3-expressing tumor cells; assay: cell-based or functional assay
[9] = target: T6, CD3 on CD3-expressing Jurkat cells (human, UniProt P07766 23-207); assay: flow cytometry, CD3-positive Jurkat cells
T6 construct: whole, on cells; also called human CD3

[10] = target: T6, CD3 on CD3-expressing Jurkat cells; assay: flow cytometry, CD3-expressing Jurkat cells
[11] = target: T4, HER3 on HER3-expressing tumor cells; assay: flow cytometry, HER3-expressing MCF-7 cells
[12] = target: T7, HER3-Fc fusion comprising the extracellular domain (aa 27-599) of human HER3 (human, UniProt P21860 27-599); assay: ELISA, coated HER3-Fc (aa 27-599), anti-His-HRP
T7 construct: also called HER3-Fc fusion protein; not shown: Fc part

T6 sequence (P07766 23-207): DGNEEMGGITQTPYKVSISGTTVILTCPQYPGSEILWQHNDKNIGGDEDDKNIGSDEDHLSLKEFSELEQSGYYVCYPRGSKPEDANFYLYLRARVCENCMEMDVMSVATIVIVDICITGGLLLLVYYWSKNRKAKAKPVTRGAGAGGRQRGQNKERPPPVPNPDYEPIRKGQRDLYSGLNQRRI
T1 sequence (Q61526 20-641): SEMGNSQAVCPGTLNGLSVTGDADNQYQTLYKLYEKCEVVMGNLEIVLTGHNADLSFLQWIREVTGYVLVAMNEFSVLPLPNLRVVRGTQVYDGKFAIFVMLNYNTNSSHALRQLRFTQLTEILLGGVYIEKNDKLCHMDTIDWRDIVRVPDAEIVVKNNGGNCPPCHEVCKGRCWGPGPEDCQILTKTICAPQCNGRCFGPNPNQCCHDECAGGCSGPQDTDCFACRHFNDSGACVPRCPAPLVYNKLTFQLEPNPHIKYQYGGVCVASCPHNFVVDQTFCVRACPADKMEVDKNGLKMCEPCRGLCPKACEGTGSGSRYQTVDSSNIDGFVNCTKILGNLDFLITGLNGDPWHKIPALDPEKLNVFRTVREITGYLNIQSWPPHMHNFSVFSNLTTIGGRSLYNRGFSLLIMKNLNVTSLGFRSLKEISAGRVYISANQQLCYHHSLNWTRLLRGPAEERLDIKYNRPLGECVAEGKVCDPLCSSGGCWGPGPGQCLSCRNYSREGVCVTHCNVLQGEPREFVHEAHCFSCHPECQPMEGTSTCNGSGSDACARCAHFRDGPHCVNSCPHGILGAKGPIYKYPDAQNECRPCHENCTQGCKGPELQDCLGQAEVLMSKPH

| Binder | IL-2 release of PBMC with HER3-expressing MCF-7 cells (EC50) [8] | killing of MCF-7 cells by PBMC, MTT assay (EC50) [8] | EC50 [9] | EC50 [10] | EC50 [11] | EC50 [12] | other results |
| --- | --- | --- | --- | --- | --- | --- | --- |
| B1 | – | – | – | – | – | – | binding result [1]: binds |
| B2 | – | – | – | – | – | – | EC50 (HER2-ECD protein): ~1.5 nM |
| B3 | – | – | – | – | – | – | EC50 [2]: 0.26 nM; EC50 [3]: 0.054 nM; EC50 [4]: 0.85 nM; EC50 (EGFR on tumor cells [5]): 0.14 nM; EC50 (EGFR on tumor cells [6]): 0.047 nM; EC50 [7]: 0.047 nM |
| B4 | 0.48 nM | 84 pM | 2.4 nM | 3.1 nM | 1.1 nM | 3.3 nM and 4.87 nM | IL-2 release of PBMC with HER3-expressing Colo205 cells (EC50) [8]: 0.3 nM |
| B5 | 0.29 nM | 34 pM | 4.2 nM | 13.2 nM | 0.0316 nM and 0.0314 nM | 0.81 nM | – |
